Results from paper PMC11373624, “Development and preclinical characterization of a novel radiotheranostic EphA2-targeting bicyclic peptide” (Theranostics, 2024).
Numbered stars: 1 amine (or outer) side, 2 acyl side, 3 side chain; on linkers, the order of the positions; unused ones are H or OH. Bridge positions count the residues as written; N and C are the ends. Square brackets hold non-standard residues; d marks the D form. Peptide text beside a SMILES is read from it. * marks the point of attachment. DOTA = O=C(O)CN1CCN(CC(=O)O)CCN(CC(=O)*)CCN(CC(=O)O)CC1; TATA = O=C(CC[*:1])N1CN(C(=O)CC[*:2])CN(C(=O)CC[*:3])C1; Hyp = O=C(O)[C@@H]1C[C@@H](O)CN1; hArg = N=C(N)NCCCC[C@H](N)C(=O)O; Cba = N[C@@H](CC1CCC1)C(=O)O; βAla = NCCC(=O)O; Sar = CNCC(=O)O

Assays:
HT1080 cells = experiment: Cell surface binding and internalization assay; type: cell-based, human; details: listed as 68Ga-BCY18469
Experimental: To assess internalization and specificity, HT1080 cells (10^5 cells/well) were seeded in a 24-well plate coated with poly-L-lysine one day before the experiment. […] To determine specific uptake, 'cold' (non-radiolabeled) BCY18469 was added to half of the wells at an excess concentration of 10 µM/well or, alternatively, the cells were kept at 4 °C during the experiment. Following the incubation, the cells were thoroughly rinsed with cold PBS (3 x 1 mL). Subsequently, surface bound radioactivity was removed by washing with 50 mM glycine (pH 2.8, 2 x 500 µL). Finally, the internalized fraction was determined by lysing the cells with 0.5 M NaOH (500 µL). All fractions were collected and measured using a gamma counter (Perkin Elmer Wizard2, Germany). All counts were standardized to the initial activity, and specific surface binding as well as specific internalization were calculated by subtracting the non-specific binding values obtained from the wells treated with an excess of 'cold' compound. Results were calculated and expressed as %AA/10^5 cells (% applied activity/10^5 cells).

MCF-7 tumor xenograft = details: mouse, in vivo
Experimental: (§1) PET/MR imaging was performed in 8-week-old female BALC/c nu/nu mice (Charles River, Germany) which were subcutaneously inoculated on the right upper flank with 10^6 cells (1:1 in PBS:Matrigel). Tumor growth was monitored, and once size was approx. 300-500 mm^3, 150 pmol of [^68Ga]Ga-BCY18469 (4 - 9 MBq) was injected intravenously via tail vein with subsequent imaging performed under isoflurane anesthesia. For the PET imaging experiments with blocking, an excess (15 nmol) of non-radiolabeled BCY18469 was injected 5 mins before the injection of 300 pmol (4 MBq) of the ^68Ga-labeled compound. PET imaging consisted of a dynamic scan from 0 to 60 min p.i. (30 frames), followed by non-triggered localizer and a 3-step whole body T1-weighed 3D MR-scan (PET/MR 3T, Bruker BioSpin, Germany). Additionally, a 2 h p.i. static image (10 min scan) was recorded, followed by the same MR scan protocol. Data was obtained via ParaVision 3.0 and reconstructed using a Maximum-Likelihood Expectation-Maximization (MLEM) algorithm at 0.5 mm for 18 iterations. Reconstructed data was analyzed with PMOD 3.7.

in vivo [1] = details: female, BALC/c nu/nu, mouse, iv, 150 pmol, total radioactivity
Experimental: as §1

in vitro [2] = type: in vitro ADME; details: plasma
Experimental: Determination of stability in plasma was performed with the ^177Lu-labeled peptide. 10 µL of the labeled compound were added into human or mouse plasma (mouse: BioIVT, United Kingdom, human: Sigma Aldrich, Germany) and incubated at 37 °C. Aliquots were taken at different time points during incubation (1, 6, 24, 48 and 72 h) to which acetonitrile (30 μL) was added in order to precipitate plasma proteins. After centrifugation at 13,000 rpm for 5 min at r.t. the supernatant was taken and analyzed via HPLC.

in vitro [3] = type: in vitro ADME; details: human, plasma, plasma protein binding
Experimental: To determine binding to plasma proteins, BCY18469 was labeled with ^68Ga (apparent molar activity 1 GBq/µmol). Thereafter, 10 µL of the labeling mixture were added to 100 µL of mouse or human plasma (mouse: BioIVT, United Kingdom, human: Sigma Aldrich, Germany). The mixture was left for 15 min at room temperature. Afterwards, the plasma was loaded into an ultrafiltration device (Amicon Ultra 0.5ml - 30 kDa, Merck, Germany) and centrifuged at 14,000 rpm for 30 min at r.t. The filtrate and the membrane were measured in a gamma counter (Wizard2, Perkin Elmer, Germany). The amount of plasma-bound compound was calculated based on the counts in the […] relative to the total counts (filtrate + membrane).

PC-3 tumor xenograft = experiment: in vivo; details: male, athymic nude, mouse
Experimental: (§2) SPECT/CT imaging was performed in three 5- to 8-week-old male athymic nude mice (Janvier Labs, UK) which were subcutaneously inoculated on the right upper flank with 5 x 10^6 PC-3 cells (1:1 in PBS:Matrigel). Tumor growth was monitored, and once size was approx. 200 - 500 mm^3, mice were injected intravenously via tail vein with 230 pmol of [^111In]In-BCY18469 (5.3 ± 0.2 MBq). Mice were imaged under isoflurane anesthesia using whole-body static SPECT followed by a CT at each timepoint (30 min SPECT scan time starting at 1h and 24h p.i.). Reconstructed images were generated in units of activity. Namely, the values assigned to the voxels (volume elements) comprising the 3D reconstructed SPECT images were in units of MBq or equivalent. Reconstructed images were processed with VivoQuant (Invicro). Whole body maximum intensity projection (MIP) images were generated using VivoQuant.

in vivo [4] = details: male, athymic nude, mouse
Experimental: as §2

[5] = 4°C, block with 10 µM non-labeled compound
[6] = total radioactivity, Liver uptake

SMILES: CC(C)C[C@@H]1NC(=O)[C@@H]2CSCCC(=O)N3CN(CN(C3)C(=O)CCSC[C@H](NC(=O)[C@H](CC(=O)O)NC(=O)[C@H](CCCCNC(=N)N)NC(=O)[C@H](C)NC(=O)CN(C)C(=O)CN(C)C(=O)CN(C)C(=O)CN(C)C(=O)CN(C)C(=O)CN(C)C(=O)CN(C)C(=O)CN(C)C(=O)CN(C)C(=O)CN(C)C(=O)CCNC(=O)CN3CCN(CC(=O)O)CCN(CC(=O)O)CCN(CC(=O)O)CC3)C(=O)N3C[C@H](O)C[C@H]3C(=O)N[C@@H](CC3CCC3)C(=O)N[C@@H](C(C)C)C(=O)N[C@@H](CC(N)=O)C(=O)N3CCC[C@H]3C(=O)N[C@@H](CC(C)C)C(=O)N2)C(=O)CCSC[C@@H](C(N)=O)NC(=O)[C@H](CCCCNC(=N)N)NC(=O)[C@H](Cc2c[nH]c3ccccc23)NC(=O)[C@@H](CC(=O)O)NC(=O)[C@@H]2CCCN2C(=O)[C@H](Cc2c[nH]cn2)NC1=O [[68Ga]Ga-BCY18469, metal not drawn] ({DOTA-βAla}-[Sar][Sar][Sar][Sar][Sar][Sar][Sar][Sar][Sar][Sar]A[hArg]DC[Hyp][Cba]VNPLCLHP[dD]W[hArg]C-NH2; linker 14-21-28 via TATA)
- Cell Surface B 4°C (HT1080 cells; [5]): 0.03 ± 0.01 %AA/10^5 cells
- Internalization B 4°C (HT1080 cells; [5]): 0.01 ± 0.00 %AA/10^5 cells
- Cell Surface 4°C (HT1080 cells; 4°C): 0.47 ± 0.01 %AA/10^5 cells
- Internalization 4°C (HT1080 cells; 4°C): 0.05 ± 0.01 %AA/10^5 cells
- Cell Surface (HT1080 cells; 37°C, 45 min, 30 nM): 0.53 ± 0.03 %AA/10^5 cells
- Internalization (HT1080 cells; 37°C, 45 min, 30 nM): 0.18 ± 0.05 %AA/10^5 cells
- Internalization B (HT1080 cells; 37°C, block with 10 µM non-labeled compound): 0.06 ± 0.00 %AA/10^5 cells
- uptake in the tumor (MCF-7 tumor xenograft): no uptake
- SUV (in vivo [1]; Bladder uptake): 0.41 SUV
- SUV (in vivo [1]; Kidneys uptake): 3.15 SUV
- SUV (in vivo [1]; Liver uptake): 1.13 SUV
- SUV at 1 h (in vivo [1]; Tumor SUVbw): 1.7 SUV
- SUV at 2 h (in vivo [1]; Tumor SUVbw): 1.2 SUV
- SUV (in vivo [1]; Tumor uptake): 0.67 SUV
- remaining at 72 h (in vitro [2]; human): 94%
- remaining at 72 h (in vitro [2]; mouse): 40%
- fraction unbound at 15 min (in vitro [3]): ~0.5

SMILES: CC(C)C[C@@H]1NC(=O)[C@@H]2CSCCC(=O)N3CN(CN(C3)C(=O)CCSC[C@H](NC(=O)[C@H](CC(=O)O)NC(=O)[C@H](CCCCNC(=N)N)NC(=O)[C@H](C)NC(=O)CN(C)C(=O)CN(C)C(=O)CN(C)C(=O)CN(C)C(=O)CN(C)C(=O)CN(C)C(=O)CN(C)C(=O)CN(C)C(=O)CN(C)C(=O)CN(C)C(=O)CCNC(=O)CN3CCN(CC(=O)O)CCN(CC(=O)O)CCN(CC(=O)O)CC3)C(=O)N3C[C@H](O)C[C@H]3C(=O)N[C@@H](CC3CCC3)C(=O)N[C@@H](C(C)C)C(=O)N[C@@H](CC(N)=O)C(=O)N3CCC[C@H]3C(=O)N[C@@H](CC(C)C)C(=O)N2)C(=O)CCSC[C@@H](C(N)=O)NC(=O)[C@H](CCCCNC(=N)N)NC(=O)[C@H](Cc2c[nH]c3ccccc23)NC(=O)[C@@H](CC(=O)O)NC(=O)[C@@H]2CCCN2C(=O)[C@H](Cc2c[nH]cn2)NC1=O [[111In]In-BCY18469, metal not drawn] ({DOTA-βAla}-[Sar][Sar][Sar][Sar][Sar][Sar][Sar][Sar][Sar][Sar]A[hArg]DC[Hyp][Cba]VNPLCLHP[dD]W[hArg]C-NH2; linker 14-21-28 via TATA)
- Kidneys uptake (PC-3 tumor xenograft; 1 h): 31.9 ± 3.4 %ID/g
- Tumor uptake (PC-3 tumor xenograft; 1 h): 5.72 ± 1.47 %ID/g
- Tumor uptake (PC-3 tumor xenograft; 24 h): 2.32 ± 0.50 %ID/g
- tissue uptake at 1 h (in vivo [4]; Bladder uptake): 207 %ID/g
- tissue uptake at 24 h (in vivo [4]; Bladder uptake): 4.2 %ID/g
- tissue uptake at 1 h (in vivo [4]; Heart uptake): 0.03 %ID/g
- tissue uptake at 24 h (in vivo [4]; Heart uptake): 0.03 %ID/g
- tissue uptake at 1 h (in vivo [4]; Kidneys uptake): 32 %ID/g
- tissue uptake at 24 h (in vivo [4]; Kidneys uptake): 17 %ID/g
- tissue uptake at 24 h (in vivo [4]; Lungs uptake): 0.01 %ID/g
- tissue uptake at 1 h (in vivo [4]; Muscle uptake): 0.27 %ID/g
- tissue uptake at 24 h (in vivo [4]; Muscle uptake): 0.02 %ID/g
- tissue uptake at 1 h (in vivo [4]; Spleen uptake): 0.27 %ID/g
- tissue uptake at 24 h (in vivo [4]; Spleen uptake): 0.4 %ID/g
- tissue uptake at 1 h (in vivo [4]; Tail uptake): 0.28 %ID/g
- tissue uptake at 24 h (in vivo [4]; Tail uptake): 0.07 %ID/g
- tissue uptake at 24 h (in vivo [4]; Tumor uptake): 2.3 %ID/g
- tissue uptake at 1 h (in vivo [4]; [6]): 0.13 %ID/g
- tissue uptake at 24 h (in vivo [4]; [6]): 0.05 %ID/g
- tissue uptake at 1 h (in vivo [4]; total radioactivity, Lungs uptake): 0.12 %ID/g
- tissue uptake (in vivo [4]; total radioactivity, Non-target organs uptake): ≤ 1 %ID/g
- tissue uptake at 1 h (in vivo [4]; total radioactivity, Tumor uptake): 5.7 ± 1.5 %ID/g
